Laboratory results taken from patent publication US20220025021A1 (BETH ISRAEL DEACONESS MEDICAL CENTER, published 2022).
Where a chain is given by its changes, count along the chain named.

Tests used:
Test in all cases: cell-based or functional assay
[1] = target: HIV-1 pseudovirus Ce1176_A3 (envelope glycoprotein) (HIV-1)
[2] = target: HIV-1 pseudovirus 6952.v1.c20 (envelope glycoprotein) (HIV-1)
[3] = target: HIV-1 pseudovirus SC05.8C11.2344 (envelope glycoprotein) (HIV-1)
[4] = target: HIV-1 pseudovirus AC10.0.29 (envelope glycoprotein) (HIV-1)
[5] = target: HIV-1 pseudovirus 263-8 (envelope glycoprotein) (HIV-1)
[6] = target: HIV-1 pseudovirus X1193_c1 (envelope glycoprotein) (HIV-1)
[7] = target: HIV-1 envelope glycoprotein of pseudovirus BB1012-11.TC21 (HIV-1)
[8] = target: HIV-1 envelope glycoprotein of pseudovirus RHPA4259.7 (HIV-1)
[9] = target: HIV-1 envelope glycoprotein of pseudovirus CNE52 (HIV-1)
[10] = target: HIV-1 envelope glycoprotein of pseudovirus SC422661.8 (HIV-1)
[11] = target: HIV-1 envelope glycoprotein of pseudovirus DU172.17 (HIV-1)
[12] = target: HIV-1 envelope glycoprotein of pseudovirus 0260.v5.c36 (HIV-1)

B1: MS-93 (antibody)
VH: not shown
VL: DIVLTQSPLSLSVTPGESASISCKSSHSLIHGDRNNYLAWYVQKPGRSPQLLIYLASSRASGVPDRFSGSGSDKDFTLKISRVETEDVGTYYCMQGRESPWTFGQGTKVDIKRTVAAPSVFIFPPSDEQLKSGTASVVCLLNNFYPREAKVQWKVDNALQSGNSQESVTEQDSKDSTYSLSSTLTLSKADYEKHKVYACEVTHQGLSSPVTKSFNRGEC
neutralization IC50 [1]: 0.239 µg/mL
neutralization IC80 [1]: 5.33 µg/mL
neutralization IC50 [2]: 0.259 µg/mL
neutralization IC80 [2]: 4.31 µg/mL
neutralization IC50 [3]: 0.749 µg/mL
neutralization IC80 [3]: 2.48 µg/mL
neutralization IC50 [4]: 0.058 µg/mL
neutralization IC80 [4]: 0.301 µg/mL
neutralization IC50 [5]: 0.018 µg/mL
neutralization IC80 [5]: 0.065 µg/mL
neutralization IC50 [6]: 0.088 µg/mL
neutralization IC80 [6]: 0.543 µg/mL

B2: MS-97 (antibody)
VH: not shown
VL: B1 VL with I2F, S18P
neutralization IC50 [1]: 0.125 µg/mL
neutralization IC80 [1]: 1.59 µg/mL
neutralization IC50 [2]: 0.147 µg/mL
neutralization IC80 [2]: 0.917 µg/mL
neutralization IC50 [3]: 1.02 µg/mL
neutralization IC80 [3]: 2.63 µg/mL
neutralization IC50 [4]: 0.057 µg/mL
neutralization IC80 [4]: 0.282 µg/mL
neutralization IC50 [5]: 0.015 µg/mL
neutralization IC80 [5]: 0.052 µg/mL
neutralization IC50 [6]: 0.101 µg/mL
neutralization IC80 [6]: 0.588 µg/mL

B3: MS-100 (antibody)
VH: not shown
VL: B1 VL with I2F, L9H, S18P, D73G
neutralization IC50 [1]: 0.048 µg/mL
neutralization IC80 [1]: 0.905 µg/mL
neutralization IC50 [2]: 0.182 µg/mL
neutralization IC80 [2]: 1.68 µg/mL
neutralization IC50 [3]: 0.531 µg/mL
neutralization IC80 [3]: 1.77 µg/mL
neutralization IC50 [4]: 0.042 µg/mL
neutralization IC80 [4]: 0.211 µg/mL
neutralization IC50 [5]: 0.006 µg/mL
neutralization IC80 [5]: 0.026 µg/mL
neutralization IC50 [6]: 0.058 µg/mL
neutralization IC80 [6]: 0.358 µg/mL

B4: MS-111 (antibody)
VH: not shown
VL: B1 VL with I2F, D73G, T85A
IC50 (neutralization in TZM.bl cells) [7]: 0.029 µg/mL
IC80 (neutralization in TZM.bl cells) [7]: 0.093 µg/mL
IC50 (neutralization in TZM.bl cells) [8]: 0.178 µg/mL
IC80 (neutralization in TZM.bl cells) [8]: 0.802 µg/mL
IC50 (neutralization in TZM.bl cells) [9]: 0.22 µg/mL
IC80 (neutralization in TZM.bl cells) [9]: 1.31 µg/mL
IC50 (neutralization in TZM.bl cells) [10]: 0.285 µg/mL
IC80 (neutralization in TZM.bl cells) [10]: 1.03 µg/mL
IC50 (neutralization in TZM.bl cells) [11]: 1.76 µg/mL
IC80 (neutralization in TZM.bl cells) [11]: 6.27 µg/mL
IC50 (neutralization in TZM.bl cells) [12]: 0.024 µg/mL
IC80 (neutralization in TZM.bl cells) [12]: 0.066 µg/mL

B5: MS-96 (antibody)
VH: not shown
VL: B1 VL with L9H, T85A
neutralization IC50 [1]: 0.248 µg/mL
neutralization IC80 [1]: 5.85 µg/mL
neutralization IC50 [2]: 0.558 µg/mL
neutralization IC80 [2]: 8.56 µg/mL
neutralization IC50 [3]: 1.07 µg/mL
neutralization IC80 [3]: 3.4 µg/mL
neutralization IC50 [4]: 0.064 µg/mL
neutralization IC80 [4]: 0.253 µg/mL
neutralization IC50 [5]: 0.018 µg/mL
neutralization IC80 [5]: 0.064 µg/mL
neutralization IC50 [6]: 0.113 µg/mL
neutralization IC80 [6]: 0.677 µg/mL

B6: MS-98 (antibody)
VH: not shown
VL: B1 VL with I2F, D73G
neutralization IC50 [1]: 0.102 µg/mL
neutralization IC80 [1]: 2.36 µg/mL
neutralization IC50 [2]: 0.109 µg/mL
neutralization IC80 [2]: 1.6 µg/mL
neutralization IC50 [3]: 0.59 µg/mL
neutralization IC80 [3]: 1.9 µg/mL
neutralization IC50 [4]: 0.067 µg/mL
neutralization IC80 [4]: 0.245 µg/mL
neutralization IC50 [5]: 0.009 µg/mL
neutralization IC80 [5]: 0.033 µg/mL
neutralization IC50 [6]: 0.088 µg/mL
neutralization IC80 [6]: 0.369 µg/mL

B7: MS-110 (antibody)
VH: not shown
VL: B1 VL with I2F, S18P, T85A
IC50 (neutralization in TZM.bl cells) [7]: 0.033 µg/mL
IC80 (neutralization in TZM.bl cells) [7]: 0.104 µg/mL
IC50 (neutralization in TZM.bl cells) [8]: 0.18 µg/mL
IC80 (neutralization in TZM.bl cells) [8]: 0.817 µg/mL
IC50 (neutralization in TZM.bl cells) [9]: 0.21 µg/mL
IC80 (neutralization in TZM.bl cells) [9]: 1.31 µg/mL
IC50 (neutralization in TZM.bl cells) [10]: 0.243 µg/mL
IC80 (neutralization in TZM.bl cells) [10]: 1.19 µg/mL
IC50 (neutralization in TZM.bl cells) [11]: 0.847 µg/mL
IC80 (neutralization in TZM.bl cells) [11]: 7.3 µg/mL
IC50 (neutralization in TZM.bl cells) [12]: 0.026 µg/mL
IC80 (neutralization in TZM.bl cells) [12]: 0.088 µg/mL

B8: MS-94 (antibody)
VH: not shown
VL: B1 VL with L9H, S18P
neutralization IC50 [1]: 0.371 µg/mL
neutralization IC80 [1]: 11.7 µg/mL
neutralization IC50 [2]: 0.238 µg/mL
neutralization IC80 [2]: 3.67 µg/mL
neutralization IC50 [3]: 0.739 µg/mL
neutralization IC80 [3]: 2.5 µg/mL
neutralization IC50 [4]: 0.079 µg/mL
neutralization IC80 [4]: 0.299 µg/mL
neutralization IC50 [5]: 0.014 µg/mL
neutralization IC80 [5]: 0.047 µg/mL
neutralization IC50 [6]: 0.123 µg/mL
neutralization IC80 [6]: 0.548 µg/mL

B9: MS-95 (antibody)
VH: not shown
VL: B1 VL with L9H, D73G
neutralization IC50 [1]: 0.203 µg/mL
neutralization IC80 [1]: 5.38 µg/mL
neutralization IC50 [2]: 0.229 µg/mL
neutralization IC80 [2]: 6.26 µg/mL
neutralization IC50 [3]: 0.702 µg/mL
neutralization IC80 [3]: 1.79 µg/mL
neutralization IC50 [4]: 0.076 µg/mL
neutralization IC80 [4]: 0.27 µg/mL
neutralization IC50 [5]: 0.013 µg/mL
neutralization IC80 [5]: 0.047 µg/mL
neutralization IC50 [6]: 0.111 µg/mL
neutralization IC80 [6]: 0.467 µg/mL

B10: MS-99 (antibody)
VH: not shown
VL: B1 VL with I2F, T85A
neutralization IC50 [1]: 0.074 µg/mL
neutralization IC80 [1]: 1.25 µg/mL
neutralization IC50 [2]: 0.217 µg/mL
neutralization IC80 [2]: 1.99 µg/mL
neutralization IC50 [3]: 0.759 µg/mL
neutralization IC80 [3]: 2.49 µg/mL
neutralization IC50 [4]: 0.072 µg/mL
neutralization IC80 [4]: 0.328 µg/mL
neutralization IC50 [5]: 0.011 µg/mL
neutralization IC80 [5]: 0.041 µg/mL
neutralization IC50 [6]: 0.13 µg/mL
neutralization IC80 [6]: 0.57 µg/mL
